Patent publication USRE43497 (FRAUNHOFER GESELLSCHAFT ZUR FORDERUNG DER ANGEWANDTEN …, dated 2012)

Tests used:
[1] = target: T1, biotin-labelled Jab1 (in vitro translated) (human, UniProt Q92905 2-334, biotin-labelled during in vitro translation (Transcend non-radioactive translation detection system); positions not stated); assay: competition with wildtype MIF for biotin-Jab1 in TNT reticulocyte lysate
T1 construct: also called biotin-Jab1; biotin-labelled p38^Jab1

[2] = target: T2, Recombinant human MIF (macrophage migration inhibitory factor) (human, UniProt P14174 2-115); assay: assay not described
T2 construct: Used soluble (1 uM in TNT lysates); also called rMIF; rwtMIF
T2 sequence (P14174 2-115 limits assumed): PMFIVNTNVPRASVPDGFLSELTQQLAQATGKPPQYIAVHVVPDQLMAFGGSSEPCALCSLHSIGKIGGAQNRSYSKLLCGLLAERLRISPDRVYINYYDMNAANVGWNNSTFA

T1 sequence (Q92905 2-334 limits assumed): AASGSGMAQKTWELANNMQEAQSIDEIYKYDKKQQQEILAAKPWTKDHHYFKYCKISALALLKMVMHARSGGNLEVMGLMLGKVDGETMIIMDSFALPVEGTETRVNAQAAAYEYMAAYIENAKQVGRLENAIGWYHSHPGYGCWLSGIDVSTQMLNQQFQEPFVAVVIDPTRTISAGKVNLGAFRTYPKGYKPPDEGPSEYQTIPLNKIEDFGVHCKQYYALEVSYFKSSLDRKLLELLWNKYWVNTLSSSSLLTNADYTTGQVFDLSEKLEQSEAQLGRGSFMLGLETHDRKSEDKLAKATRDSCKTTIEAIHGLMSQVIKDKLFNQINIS

binding result [1] | binding result [2] | Binder
binds |  | FGGSSEPCALCSLHSI (16 residues, positions 50-65 of wildtype MIF; also called MIF peptide (50-65); Cys60-spanning 16 residue MIF peptide) [MIF (50-65) peptide]
 | no binding | p27^Kip1 (other, UniProt P46414 1-197, looked up) MSNVRVSNGSPSLERMDARQAEHPKPSACRNLFGPVNHEELTRDLEKHCRDMEEASQRKWNFDFQNHKPLEGRYEWQEVERGSLPEFYYRPPRPPKSACKVLAQESQDVSGSRQAVPLIGSQANSEDRHLVDQMPDSSDNPAGLAEQCPGMRKRPAAEDSSSQNKRANRTEENVSDGSPNAGTVEQTPKKPGLRRQT
binds |  | FGGSSEPSALSSLHSI (also called analogue of the MIF (50-65) peptide with the two Cys residues substituted for Ser) [Ser^57 Ser^60 MIF (50-65) peptide]
